Experimental findings from the DeepSol protein solubility set are described below.

The data set in a line: soluble on expression in E. coli; label from the status in PepcDB or PDB records.
In the case of “MAHHHHHHMNTFNYIRSPTGVHEVDGPPNDCVSTVRFSPSGCPYLLLGAASWDKTCRVWQVIHQPNAINIRSQPMTFAVSDAPILDMSFSADGRVFWGGCSKTATMWNLTTNQKIIVGSHDLPVSCIAHVSSNTGTEMLVTGSWDGRLRFWDLRQPMPIKEEILGEPVFGLDAQRSFPMAACVTGRKVHIFNLQTMMKTNELKPPPLLKFNLGCVACSPQKDGVVVGSSEGRLSFIPLQAEVGCTFKAHVLVEDNVLYMHQTNFCVISPRVPHMISGGGDGRIGCWDYKKRSIVGYGESETRLENRNKSISAGDISADGSLLAFARSYDWAMGKTGCIPNEPHSIHIRSAEWKSALS”, the “soluble on expression in E. coli” value is recorded as “not soluble”. Under “MAHHHHHHMNYNNNSFIPPTHVVKNIYTSAKTKFFLIKSSSDKNIAISLNYNIWATTPKNEYKFVSAFMEHDYVILVFSVNGSSKFCGYAIMQSKPGESKNNNVYFYYDNKVFRGKNFDIQWIRVVDVPFQEVAHLKNSLNEYKPIKVGRDGQEIEQMAGIQLCEAFESNFIKINNNITDTNTKPNIPPMYNMNTNNYVDSPNMNENIDMIKLYPYNNNFNINYNNFRNLYEESQYNLFNFYNPALHIFPIDLTNMNYDEYIYLYEKSQLVWQQKMLQMKANMNCIKQ” stands “not soluble”; under “MAHHHHHHMPAKSAKSKTQTLRDERKLGVEKLVELVFIGRPRTLSFSHRSLGSLRHPYSSLICETSAACASTQDKIMYLLEVFLEAKAEKKAWMRVERIFDSMLGDALMEKMKLGLLLSSELLQRFEVLWIRLGGVNGGFIFEDAYKQFHQHLYFTLFGIEQMTLLPATMQFILEDYQYDSHDKSGIDFGSFAHSMLELADNWAGSREVTDYVAFMDKIIECYPASAVKPCKTHAPDELTLSKDAFFRGGVVVPRVEGEQIVYHRITL”, “not soluble”. Turning to “MAHHHHHHMPARWHNKQKKGSNGHKRPSTGGNGSAARRDIGFIPPGASAVQNSSAHHADTFMYRFPQNFPVPRRLRHAPTSLVEAVNDFHFAMMNDRPRNEFYYELLKRHVTPETGVLEIGAGSGLLSLMAAQLGAKWVVAVEGSAEMAKLARANICANKMEHKVTVLHMLSTELTLRHLPDRPDVMVSEILGTLLLGESALDYIADVRERLLKPTTKIIPQHGTQYAVPIECDTLRDVCAVSGWKGLELSHMTALQDTVSIVFAKQYGFRMSSVPFRRLSEPIALFSVDFASAVRRDIPMNLKLDVKATSSGTAHAMLYYWKAFDGDLVMSTDPADTLNNFPRDMQWGQALQLLDAANGPFPTPVVFTEGEELKFQCHFSSDRVTVHIHLCPTAEAAASPAKTTPTDNDAIKTEKEACEKVNKGKK”, the “soluble on expression in E. coli” value is “soluble”.

As to “MAHHHHHHMPGASDRGTAYVSCRIHCLPACFSRAVVAVCKLTSPAPGIPPLVSLCRYGLPGYSAQEGEAFSAAASGLHPRHQLPFVLSRVAASKAIASLSPDKRAACPGEEDGPAVVFTDRREAAPTLHGCCLSIAHEDSAAASVAWSVPSPDSSSFKDYHAAPERLYMEAQLVCSHSTLPDATATSFAYAIDVVNVAEVHRVRSRFPHFGQRWMPQCTTTASADDVGRALTCVQKQHQECVAAVGAPGGSHGGEGVSACQAACRRDEWWKHLVTPYVTEADAYAAVVLAQHWGVRECAVKLVGIPGRSFAYECVRALPPRGGAVVTESTPFTASFLMSHTLYSAEVHGAEAATLAQQRLHPLLYLYTWTEWVPLNSTVDLPYVVVLACAPCRSDAR”, the “soluble on expression in E. coli” value was “not soluble”. Under “MAHHHHHHMPHHAQDLRHDFTSGILNCHESCAVCLDACLCMYCTASAHHNFLMNDTEGLYLPVCWGLFCVDVGLSAVSSYLPSSLHFHTYFMRSAIRRRYNLHSA” stands “soluble”. Under “MAHHHHHHMPIPSPPPPMRFVPNGVGGGGARDLTAVKEPNFEVLETSSPVPARVIHNAPASAVPSGTQRPVEAPPSTHATGAQHHPKAVHSPPLACPALAMTSTPASSSSSSSSQQVAQLWQLVQDLTAENAVLQQRVRVLMEGETHDAILPGMLTAPSSPEETEALLLRVRRLEAALKVEAMEREALEVRLQAQEQVLTRLLRR” stands “soluble”; under “MAHHHHHHMPKEVQEKDEFFYFFNHFCFYIINETKQYALSYKMNFAFYLPYGSLGVDVLKNVFDYLHYLDVPTILDIKMNDIGNTVKHYSKFIFHYLRSDSCTANIYMGTHMLRDICLDEECKRHYSTFVLIKTTNPDSHIFQNRLSLDGKEAYVVIADEAQKMAKQLHLEENGEFVGFVVGANCYDEMKKIRELFPDCYILAPGVGAQKGDLRKTLCNGYSKNYERLLINVGRAITKSGNPQQAAREYYHQIKEILAEL”, “not soluble”.
